Measurements taken from paper PMC2831815.

B1: TraE (Aeromonas veronii) (protein)
chain: MKQIKQTPLKKGRTEPVMRMYPDYQFHVSDNVVFTADKKALASIAIEGMPFESISDGVLESDFDSIKNFLVNMGKDGDVYLWTHLVKEKVSLDEEYHFKSDFLNRFSNQYTELFRGSNFFKSTYYLTFGIKYSNISEAIERLDEVIHQAKAVLGKYGAHVLTVDQNRVSGVADYLHLLLNKSHAEIPLSINPISSSIADSEWYFGYDSLELRNNEAEEKKFATNYVVKDFPMFTELGQWDFLLRLPYEFIITQSFIYEAPTKTLKEIDAQLNKMGSAGDAAENQQDELVLGKEVVTSGITLFGSYHCVLTVFGRTADEARKNGIKVSSEFVSAGKGFRFIRTNSAGAHCYFSHMPMNKIRPLATRRTITNLACTFSLHNYSHGKKRGNPIGDGTAIMPLKTVADGLYWFNTHYSEPGRDVRGQKIAGHAMILGATGAGKTTFEGAAAGFLQRFDPYMFVVDFNRSTELFVRAYGGSYFTLKEGEYTGLNPFQICDLDDELAPRLVQFLKSYVKTLAYDQSGKPCSDAQAEELAKAVDATMLLPREMRRLSTLLSRISDPELKIRLAKWCGAGQYAWAVDSPRNTFNPMDFKKVGFDTTVILEKTKDGVHPACEPLLAILFFYKSLMQREGQLMLSIIEEFWMPANFPLTQAMIKSALKAGRMKGEMMWLTSQSPEDAIYCEIFPALVQQTATKILLPNPDADLEGYKKIGLTVKEFDRLKKLGKESRTMLIKQSGSSCFAKMDLYGFDDFLPIISGSMEGITLCEKVRAELGTDNPDIWIPEFLKQLREE
B2: TraK (Aeromonas veronii) (protein)
chain: MKNKAGFIGFLLFVFALCSVGSLYLGGYMLLKKSGVDMSALSIHTFFDVNRDLGGDPAFKKIIAWGWIGFAIPYAIFLFFVGVMLVGLMPKKVIYGDGRLATPMDLARSGFFPKKGDKHKQPPILIGKMFKGRFKNSYIYFYGQQFLILYAPTRSGKGVGIVIPNCVNYPESIVVLDIKLENFFLSAGYRKEQGQECFLFSPDGFADNLDAARRGEIKSHRFNPLDYVSRSPLQRESDLKKIAAILYPTSGGENDTWNESASSLWIGLALYLLDMEKVEPKTKVAVSQIIKISVPGSGDPLEKWMELTIKAKSDILGDDTKQYFRKFMSAADRTRASILVNFNNGVAVFSNPITAAATDSSDFDLRDLRKKKMSVYLGLSPNSLVTHAKLVNLFFSLLVNENTKELPENNPELKYQCLLILDEFTSMGRVEIIQKAVGFTAGYNIRFMFILQNKGQLEDDKMYGKEGAETFIENTGVELYYPPKSVNDTAKAISEKIGVRDEKVSSISRSSQSGKTSRSKSTSTEKRAVLLPDEIVSLRDHKNKGGNMAVREIILSDFCRPFIANKIVYFEEPIFMERVNYARKNPIEIPFLFNEDERKTFTCDSISLGSVMKKPDLDNHDQADKSE

Substrate: Nc1ncnc2c1ncn2[C@@H]1O[C@H](COP(=O)(O)OP(=O)(O)OP(=O)(O)O)[C@@H](O)[C@H]1O
Test: purified protein
Conditions: 10 mM MgCl2, pH 7.6, 37 °C, ATP 0.025-3.5 mM

Protein | Km [µM] | Km (Discussion prints 0.96 mM instead) [µM]
B1 | 550 | 
B2 |  | 920
